The target in this experiment is FimH Q133A (E. coli, UniProt P08191 22-300). Nature of the experiment: co-expression with FimC in E. coli; data not shown.

B1: FimC (wild type periplasmic chaperone of E. coli type 1 pili) (other)
chain: GVALGATRVIYPAGQKQVQLAVTNNDENSTYLIQSWVENADGVKDGRFIVTPPLFAMKGKKENTLRILDATNNQLPQDRESLFWMNVKAIPSMDKSKLTENTLQLAIISRIKLYYRPAKLALPPDQAAEKLRFRRSANSLTLINPTPYYLTVTELNAGTRVLENALVPPMGESTVKLPSDAGSNITYRTINDYGALTPKMTGVME
notes: also called FimC alone; wild type FimC
On to B1, for which the binding result was “binds”.
